This is an account of results in article PMC7238434 (Nature protocols, 2019).

The target in series [1] is p7 protein from the Hepatitis C virus (HCV) (Hepatitis C virus) (UniProt O39928). The experiment in a line: cross-linking.
Series [2] has as its target transmembrane domain of Fas (Fas-TMD). The experiment in a line: SDS-PAGE.
Series [3] deals with the molecule itself. Nature of the series: cross-linking.

Where no end group is shown, it is not given here.

For the molecule “p7 protein from the Hepatitis C virus (HCV) (from UniProt O39928 748-810) (natural protein)”, the stoichiometry N in series [1] is 6.

B1: transmembrane domain of Fas (Fas-TMD) (domain or fragment)
chain: RSNLGWLCLLLLPIPLIVWVKRKEVQKT
modifications: not checked
On to B1, for which the stoichiometry N in series [2] amounted to 3.

B2: Fas-TMD with a C-terminal His6-tag (domain or fragment)
chain: RSNLGWLCLLLLPIPLIVWVKRKEVQKT-His6
modifications: also: primary amines blocked with Sulfo-NHS Acetate
For the molecule B2, in series [3], the “stoichiometry N” value is 3.

As a reminder, the stoichiometry N is a count of units in the complex or per binding partner.
